The text below walks through data of patent US20220033460A1, “IDENTIFICATION AND USE OF T CELL EPITOPES IN DESIGNING DIAGNOSTIC AND THERAPEUTIC APPROACHES FOR COVID-19” (priority 2020, published 2022).

The target in experiment [1] is DRB1*07:01. The following applies: modification not given.
For experiment [2], the target named is DRB1*15:01. To be noted: modification not given.
The target in experiment [3] is DRB01*11:01. To be noted: chains peptide; modification not given.
Experiment [4] has as its target DRB01*04:04. The following applies: chains peptide; modification not given.
The target of experiment [5] is DRB01*07:01. To be noted: chains peptide; modification not given.
Experiment [6] deals with DRB01*15:01. The following applies: chains peptide; modification not given.
Experiment [7] concerns the target DRB1*15:01. To be noted: modification not given. The source holds these as a separate data set.
For experiment [8], the target named is DRB1*07:01. The following applies: modification not given. This is another data set of the same source.
For experiment [9], the target named is DRB1*15:01. The following applies: modification not given. The source holds these as a separate data set.
In experiment [10] the target is SARS-CoV-2 peptide on HLA-A*24:02 (human). The experiment is described as follows: barcoded tetramer library on ex vivo CD8+ T cells, single-cell sequencing; T cell clone or line. The following applies: chains Valpha:Vbeta.
Experiment [11] addresses DRB01*15:01. To be noted: modification not given.
The target in experiment [12] is DRB1*07:01. To be noted: modification not given. This is another data set of the same source.
Experiment [13] deals with DRB1*15:01. The following applies: modification not given. This is another data set of the same source.
For experiment [14], the target named is DRB1*07:01. To be noted: modification not given. This is another data set of the same source.
The target in experiment [15] is DRB1*15:01. To be noted: modification not given. This is another data set of the same source.
Experiment [16] addresses DRB1*07:01. To be noted: modification not given. The source holds these as a separate data set.
Experiment [17] deals with DRB1*15:01. The following applies: modification not given. The source holds these as a separate data set.
The target of experiment [18] is DRB1*07:01. To be noted: modification not given. This is another data set of the same source.
The target in experiment [19] is DRB1*15:01. The following applies: modification not given. This is another data set of the same source.
For experiment [20], the target named is DRB1*07:01. To be noted: modification not given. This is another data set of the same source.
The target in experiment [21] is DRB1*15:01. To be noted: modification not given. This is another data set of the same source.
The target of experiment [22] is DRB1*15:01. The following applies: modification not given. The source holds these as a separate data set.
Experiment [23] has as its target DRB1*15:01. To be noted: modification not given. This is another data set of the same source.
Experiment [24] concerns the target DRB1*07:01. To be noted: modification not given. This is another data set of the same source.
Experiment [25] deals with DRB1*07:01. To be noted: modification not given. The source holds these as a separate data set.
The target in experiment [26] is DRB1*07:01. The following applies: modification not given. The source holds these as a separate data set.
For experiment [27], the target named is DRB1*07:01. To be noted: modification not given. This is another data set of the same source.
Experiment [28] deals with DRB1*15:01. To be noted: modification not given. This is another data set of the same source.
In experiment [29] the target is DRB1*07:01. The following applies: modification not given. The source holds these as a separate data set.
The target in experiment [30] is DRB1*07:01. The following applies: modification not given. The source holds these as a separate data set.
Experiment [31] has as its target DRB1*15:01. To be noted: modification not given. This is another data set of the same source.
The target in experiment [32] is DRB1*07:01. The following applies: modification not given. This is another data set of the same source.
The target in experiment [33] is DRB1*15:01. To be noted: modification not given. This is another data set of the same source.
Experiment [34] deals with DRB1*07:01. The following applies: modification not given. This is another data set of the same source.

Like-named read-outs stand apart in the source and are kept apart here.

The IC50 is the concentration at which inhibition is half-maximal. Read a high IC50 as a need for much substance.

Consider NSPRRARSVASQSII [… (position 679)], for which the concentration for half-maximal inhibition (IC50) in experiment [1] was determined as 206 nM; in [2], 25500 nM. Consider RGHLRIAGHHLGRCDIKDLPKEI [SEQ ID NO 307], for which the IC50 in [3] is 561 nM; in experiment [4] it was 1730 nM; in [5], 10200 nM; in [6] it was 5090 nM. For TSVDCTMYICGDSTE [… (position 734)], the IC50 in [7] came out at 36700 nM. For KKFLPFQQFGRDIAD [… (position 557)], the IC50 in [8] turned out to be 1630 nM; in experiment [9], 6440 nM.

B1: TCR_109 (protein)
chain 1: AQKITQTQPGMFVQEKEAVTLDCTYDTSDQSYGLFWYKQPSSGEMIFLIYQGSYDEQNATEGRYSLNFQKARKSANLVISASQLGDSAMYFCAMRDSNSNSGYALNFGKGTSLLVTP
chain 2: DAEITQSPRHKITETGRQVTLACHQTWNHNNMFWYRQDLGHGLRLIHYSYGVQDTNKGEVSDGYSVSRSNTEDLPLTLESAASSQTSVYFCASSDGHQGLQETQYFGPGTRLLVL
In the case of B1, the No. of Cells in experiment [10] is 2 cells. Take TLLALHRSYLTPGDS [Positive Control …]: in experiment [11], the IC50 was determined as 257 nM. Turning to TFEYVSQPFLMDLEG [… (position 167)], the IC50 in experiment [12] came to 442 nM; in experiment [13], 7660 nM. Turning to TVEKGIYQTSNFRVQ [… (position 307)], the IC50 in experiment [14] is 316 nM; in experiment [15] it was 378 nM.

As to GVYFASTEKSNIIRG [… (position 89)], the IC50 in [16] is 99 nM; in experiment [17], 15500 nM.

In the case of TWRVYSTGSNVFQTR [… (position 632)], the IC50 in experiment [18] worked out at 220 nM; in experiment [19], 1950 nM.

With NFRVQPTESIVRFPN [… (position 317)], the IC50 in [20] was determined as 1620 nM; in experiment [21], 1020 nM.

B2: TCR_76 (protein)
chain 1: QQQVKQSPQSLIVQKGGISIINCAYENTAFDYFPWYQQFPGKGPALLIAIRPDVSEKKEGRFTISFNKSAKQFSLHIMDSQPGDSATYFCAASNRGGSEKLVFGKGTKLTVNP
chain 2: NAGVTQTPKFQVLKTGQSMTLQCAQDMNHEYMSWYRQDPGMGLRLIHYSVGAGITDQGEVPNGYNVSRSTTEDFPLRLLSAAPSQTSVYFCASSYHAGDRGFGYTFGSGTRLTVV
As to B2, the No. of Cells in [10] came to 2 cells.

In turn, PLSETKCTLKSFTVE [… (position 295)] came in with an IC50 in experiment [22] of 15500 nM.

On to QKFNGLTVLPPLLTD [… (position 853)], for which the IC50 in experiment [23] came out at 1710 nM. Consider NVVIKVCEFQFCNDP [… (position 125)], for which the IC50 in experiment [24] amounted to 6610 nM.

Turning to ASQSIIAYTMSLGAE [… (position 688)], the IC50 in experiment [25] is 124 nM.

B3: TCR_101 (protein)
chain 1: EDQVTQSPEALRLQEGESSSLNCSYTVSGLRGLFWYRQDPGKGPEFLFTLYSAGEEKEKERLKATLTKKESFLHITAPKPEDSATYLCAVHLNDYKLSFGAGTTVTVRA
chain 2: NAGVMQNPRHLVRRRGQEARLRCSPVKGHSHVYWYRQLPEEGLKFMVYLQKENIIDESGMPKERFSAEFPKEGPSILRIQQVVRGDSAAYFCASSRPSGQGNNGYTFGSGTRLTVV
B3: the No. of Cells in [10] was found to be 2 cells. For TLLALHRSYLTPGDS [… (position 240)], the half-inhibitory concentration (IC50) in [26] came out at 298 nM. On to FRSSVLHSTQDLFLP [… (position 43)], for which the IC50 in experiment [27] was found to be 85 nM; in experiment [28], 5570 nM. As for PLVSSQCVNLTTRTQ [… (position 9)], the 50% inhibitory concentration (IC50) in experiment [29] was 838 nM. Take PAYTNSFTRGVYYPD [… (position 26)]: the IC50 in experiment [30] is 153 nM. This lies in the sub-micromolar range. Consider KLPDDFTGCVIAWNS [… (position 424)], for which the IC50 in experiment [31] was 2060 nM. Consider DSLSSTASALGKLQD [… (position 936)], for which the concentration for half-maximal inhibition (IC50) in [32] came out at 1020 nM; in [33] it was 10900 nM.

In [34], PFAMQMAYRFNGIGV [… (position 897)] showed an IC50 of 158 nM.
